The record followed here is paper PMC5856089.

Assay [1] addresses T1, C-luc Apaf-1 (full length Apaf-1 fused through its N-terminus to the C-terminal fragment, amino acids 395-550, of P. pyralis luciferase, with C-terminal His-tag), O14727.
T1 chain: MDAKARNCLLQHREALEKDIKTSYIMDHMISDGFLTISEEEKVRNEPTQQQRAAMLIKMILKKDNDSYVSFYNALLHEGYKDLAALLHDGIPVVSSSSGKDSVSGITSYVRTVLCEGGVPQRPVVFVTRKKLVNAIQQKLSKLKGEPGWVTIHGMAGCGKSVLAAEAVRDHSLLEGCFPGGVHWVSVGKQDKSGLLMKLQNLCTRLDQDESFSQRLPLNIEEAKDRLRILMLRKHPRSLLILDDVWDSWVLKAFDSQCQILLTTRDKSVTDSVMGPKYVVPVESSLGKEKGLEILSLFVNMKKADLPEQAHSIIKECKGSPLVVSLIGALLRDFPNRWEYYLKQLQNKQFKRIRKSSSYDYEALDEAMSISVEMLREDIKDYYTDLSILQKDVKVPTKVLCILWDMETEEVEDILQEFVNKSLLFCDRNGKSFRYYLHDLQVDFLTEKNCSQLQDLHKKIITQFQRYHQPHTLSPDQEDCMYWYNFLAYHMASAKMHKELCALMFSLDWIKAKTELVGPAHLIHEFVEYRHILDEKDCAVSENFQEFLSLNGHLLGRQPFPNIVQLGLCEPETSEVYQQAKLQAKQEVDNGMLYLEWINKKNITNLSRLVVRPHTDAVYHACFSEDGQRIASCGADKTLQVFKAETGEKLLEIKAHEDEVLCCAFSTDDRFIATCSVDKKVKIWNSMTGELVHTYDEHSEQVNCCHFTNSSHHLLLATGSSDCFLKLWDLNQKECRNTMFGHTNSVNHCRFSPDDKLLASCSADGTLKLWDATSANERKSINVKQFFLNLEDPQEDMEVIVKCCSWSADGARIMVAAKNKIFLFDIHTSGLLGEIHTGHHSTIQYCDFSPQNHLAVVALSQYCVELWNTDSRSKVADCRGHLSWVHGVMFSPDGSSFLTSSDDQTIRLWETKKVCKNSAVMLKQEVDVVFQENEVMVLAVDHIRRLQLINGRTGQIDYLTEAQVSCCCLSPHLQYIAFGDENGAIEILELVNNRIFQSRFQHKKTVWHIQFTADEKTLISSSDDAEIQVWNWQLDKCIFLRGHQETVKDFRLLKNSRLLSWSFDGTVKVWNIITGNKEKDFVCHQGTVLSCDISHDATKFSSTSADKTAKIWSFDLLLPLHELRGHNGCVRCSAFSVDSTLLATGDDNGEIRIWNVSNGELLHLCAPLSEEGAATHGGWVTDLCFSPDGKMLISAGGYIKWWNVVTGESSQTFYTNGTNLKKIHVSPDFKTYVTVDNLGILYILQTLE
Description: split reporter (BiFC, NanoBiT); cell-based split luciferase: HEK293 co-transfected with N-luc Apaf-1 and C-luc Apaf-1 (N/P 12), apoptosis induced with 0.5 μM doxorubicin, lysates (CCLR) prepared 12, 24, 28 and 36 h after induction; luciferase activity against uninduced cells. As to conditions: remark: other sources report otherwise.

The target in assay [2] is T1, C-luc Apaf-1 (full length Apaf-1 fused …). The assay is described as follows: split reporter (BiFC, NanoBiT); cell-free split luciferase: extracts of N-luc Apaf-1 and C-luc Apaf-1 expressing cells mixed, cytochrome c (1.6 μM) and dATP (1.0 mM) added, room temperature; against the mixture without cytochrome c and dATP. The following applies: remark: other sources report otherwise.

B1: N-luc Apaf-1 (full length Apaf-1 fused through its N-terminus to the N-terminal fragment, amino acids 1-416, of P. pyralis luciferase), O14727 1-1248 (natural protein)
chain: MDAKARNCLLQHREALEKDIKTSYIMDHMISDGFLTISEEEKVRNEPTQQQRAAMLIKMILKKDNDSYVSFYNALLHEGYKDLAALLHDGIPVVSSSSGKDSVSGITSYVRTVLCEGGVPQRPVVFVTRKKLVNAIQQKLSKLKGEPGWVTIHGMAGCGKSVLAAEAVRDHSLLEGCFPGGVHWVSVGKQDKSGLLMKLQNLCTRLDQDESFSQRLPLNIEEAKDRLRILMLRKHPRSLLILDDVWDSWVLKAFDSQCQILLTTRDKSVTDSVMGPKYVVPVESSLGKEKGLEILSLFVNMKKADLPEQAHSIIKECKGSPLVVSLIGALLRDFPNRWEYYLKQLQNKQFKRIRKSSSYDYEALDEAMSISVEMLREDIKDYYTDLSILQKDVKVPTKVLCILWDMETEEVEDILQEFVNKSLLFCDRNGKSFRYYLHDLQVDFLTEKNCSQLQDLHKKIITQFQRYHQPHTLSPDQEDCMYWYNFLAYHMASAKMHKELCALMFSLDWIKAKTELVGPAHLIHEFVEYRHILDEKDCAVSENFQEFLSLNGHLLGRQPFPNIVQLGLCEPETSEVYQQAKLQAKQEVDNGMLYLEWINKKNITNLSRLVVRPHTDAVYHACFSEDGQRIASCGADKTLQVFKAETGEKLLEIKAHEDEVLCCAFSTDDRFIATCSVDKKVKIWNSMTGELVHTYDEHSEQVNCCHFTNSSHHLLLATGSSDCFLKLWDLNQKECRNTMFGHTNSVNHCRFSPDDKLLASCSADGTLKLWDATSANERKSINVKQFFLNLEDPQEDMEVIVKCCSWSADGARIMVAAKNKIFLFDIHTSGLLGEIHTGHHSTIQYCDFSPQNHLAVVALSQYCVELWNTDSRSKVADCRGHLSWVHGVMFSPDGSSFLTSSDDQTIRLWETKKVCKNSAVMLKQEVDVVFQENEVMVLAVDHIRRLQLINGRTGQIDYLTEAQVSCCCLSPHLQYIAFGDENGAIEILELVNNRIFQSRFQHKKTVWHIQFTADEKTLISSSDDAEIQVWNWQLDKCIFLRGHQETVKDFRLLKNSRLLSWSFDGTVKVWNIITGNKEKDFVCHQGTVLSCDISHDATKFSSTSADKTAKIWSFDLLLPLHELRGHNGCVRCSAFSVDSTLLATGDDNGEIRIWNVSNGELLHLCAPLSEEGAATHGGWVTDLCFSPDGKMLISAGGYIKWWNVVTGESSQTFYTNGTNLKKIHVSPDFKTYVTVDNLGILYILQTLE
Consider B1, for which, in assay [1], the fold change in luciferase activity against uninduced cells, 12 h after apoptosis induction stood at 10 fold; the fold change in luciferase activity against uninduced cells, 24 h after apoptosis induction worked out at 130 fold; the fold change in luciferase activity against uninduced cells, 28 h after apoptosis induction is 280 fold; the fold change in luciferase activity against uninduced cells, 36 h after apoptosis induction worked out at 40 fold. Moreover, the fold increase in reconstituted luciferase activity with dATP/cytochrome c against the mixture without them in assay [2] came out at 5 fold.
